Experimental data: patent US11166479B2, “Feedstuffs for aquaculture comprising stearidonic acid” (COMMONWEALTH SCIENTIFIC AND INDUSTRIAL RESEARCH ORGANISATION, priority 2005, dated 2021)

Tested on: yeast strain S288Cα
Test: Heterologous expression of E. plantagineum Δ6-desaturase gene in yeast, conversion of fed fatty acids
Format: cell-based
Conditions: 20° C., 2-3 days
Experimental: Expression experiments in yeast were carried out to confirm that the cloned E. platangineum gene (cDNA sequence provided as SEQ ID NO:25) encoded a Δ6-desaturase enzyme. The gene fragment was inserted as an XbaI-SacI fragment into the […] sites of the yeast expression vector pSOS (Stratagene) containing the constitutive ADH1 promoter, resulting in plasmid pXZP271. This was transformed into yeast strain S288Cα by a heat shock method and transformant colonies selected by plating on minimal media plates. For the analysis of enzyme activity, 2 mL yeast clonal cultures were grown to an O.D.600 of 1.0 in yeast minimal medium in the presence of 0.1% NP-40 at 30° C. with shaking. Precursor free-fatty acids, either linoleic or linolenic acid as 25 mM stocks in ethanol, were added so that the final concentration of fatty acid was 0.5 mM. The cultures were transferred to 20° C. and grown for 2-3 days with shaking. Yeast cells were harvested by repeated centrifugation and washing first with 0.1% NP-40, then 0.05% NP-40 and finally with water. Fatty acids were extracted and analyzed. The peak identities of fatty acids were confirmed by GC-MS.

B1: EplD6Des: Δ6 desaturase from Echium plantagineum, polypeptide of 438 amino acid residues, expressed in yeast from plasmid pXZP271 (protein, listed as Echium plantagineum)
chain: MANAIKKYITAEELKKHDKAGDLWISIQGKIYDVSDWLKDHPGGNFPLLSLAGQEVTDAFVAFHSGTTWKLLEKFFTGYYLKDYSVSEVSKDYRKLVFEFNKMGLFDKKGHIVLVTVLFIAMLFGMSVYGVLFCEGVLVHLLAGGLMGFVWIQSGWIGHDAGHYIVMPDARLNKLMGIVAANCLSGISIGWWKWNHNAHHIACNSLDYDPDLQYIPFLVVSSKLFSSLTSHFYEKKLTFDSLSRFFVSHQHWTFYPVMCMARVNMFVQSLIMLLTKRNVFYRSQELLGLVVFWIWYPLLVSCLPNWGERVMFVVASLSVTGMQQVQFSLNHFSSSVYVGQPKGNDWFEKQTCGTLDISCPSWMDWFHGGLQFQVEHHLFPKLPRCHLRKISPFVMELCKKHNLSYNCASFSEANNMTLRTLRDTALQARDLTKPLPKNLVWEALNTHG
LA converted to GLA (0.5 mM linoleic acid fed): Around 2.9%
ALA converted to SDA (0.5 mM linolenic acid fed): ~2.3%
